Assay results taken from patent US20160333422A1 (UNITED STATES OF AMERICA AS REPRESENTED BY THE SECRETARY …, published 2016).

T1: NY-BR-1 expressed from a transfected vector/plasmid in target cells (Homo sapiens (Human), UniProt Q9BXX3 1-1397)
T1 sequence: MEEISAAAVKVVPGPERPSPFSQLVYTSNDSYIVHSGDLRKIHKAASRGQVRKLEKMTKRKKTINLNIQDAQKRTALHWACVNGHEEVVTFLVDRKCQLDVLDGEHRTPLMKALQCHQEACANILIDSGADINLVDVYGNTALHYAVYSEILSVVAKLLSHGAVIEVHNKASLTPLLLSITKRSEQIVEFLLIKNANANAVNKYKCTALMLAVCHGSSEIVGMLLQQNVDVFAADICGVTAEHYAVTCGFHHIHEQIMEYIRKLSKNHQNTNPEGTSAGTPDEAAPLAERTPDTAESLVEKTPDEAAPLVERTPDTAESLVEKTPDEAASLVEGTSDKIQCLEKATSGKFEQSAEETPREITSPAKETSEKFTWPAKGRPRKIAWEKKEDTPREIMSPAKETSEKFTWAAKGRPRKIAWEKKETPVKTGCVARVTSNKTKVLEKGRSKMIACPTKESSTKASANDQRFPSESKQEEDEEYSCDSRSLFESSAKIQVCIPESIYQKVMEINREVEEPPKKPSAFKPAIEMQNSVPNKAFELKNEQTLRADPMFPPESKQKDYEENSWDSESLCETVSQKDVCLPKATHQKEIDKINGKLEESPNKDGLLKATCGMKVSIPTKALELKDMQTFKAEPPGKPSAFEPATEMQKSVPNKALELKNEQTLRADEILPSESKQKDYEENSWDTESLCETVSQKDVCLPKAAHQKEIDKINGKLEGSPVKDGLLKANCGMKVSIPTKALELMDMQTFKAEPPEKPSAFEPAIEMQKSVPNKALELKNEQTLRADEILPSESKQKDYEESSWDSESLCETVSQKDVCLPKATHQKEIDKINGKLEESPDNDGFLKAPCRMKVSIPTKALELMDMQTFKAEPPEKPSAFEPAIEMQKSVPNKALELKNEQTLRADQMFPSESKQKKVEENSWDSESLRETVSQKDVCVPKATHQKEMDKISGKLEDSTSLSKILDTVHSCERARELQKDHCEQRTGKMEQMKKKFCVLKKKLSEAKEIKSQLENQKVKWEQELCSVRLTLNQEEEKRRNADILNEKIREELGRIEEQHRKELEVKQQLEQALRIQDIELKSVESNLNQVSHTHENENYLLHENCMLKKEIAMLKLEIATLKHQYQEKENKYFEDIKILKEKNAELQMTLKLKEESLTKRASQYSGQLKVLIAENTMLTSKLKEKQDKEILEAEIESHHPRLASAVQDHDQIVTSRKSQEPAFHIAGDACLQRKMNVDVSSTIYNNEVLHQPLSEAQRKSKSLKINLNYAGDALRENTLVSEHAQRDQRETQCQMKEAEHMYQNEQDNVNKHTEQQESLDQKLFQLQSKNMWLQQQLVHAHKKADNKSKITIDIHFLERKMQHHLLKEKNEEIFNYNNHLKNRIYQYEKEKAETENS


Legend:
[1] = target: NYBR1.1, an isoform of NYBR1, expressed from a plasmid in Cos7 cells, Q9BXX2; test: cell-based or functional assay
NYBR1.1, an isoform of NYBR1, expressed from a plasmid in Cos7 cells, Q9BXX2, sequence (Q9BXX2 whole entry, canonical isoform): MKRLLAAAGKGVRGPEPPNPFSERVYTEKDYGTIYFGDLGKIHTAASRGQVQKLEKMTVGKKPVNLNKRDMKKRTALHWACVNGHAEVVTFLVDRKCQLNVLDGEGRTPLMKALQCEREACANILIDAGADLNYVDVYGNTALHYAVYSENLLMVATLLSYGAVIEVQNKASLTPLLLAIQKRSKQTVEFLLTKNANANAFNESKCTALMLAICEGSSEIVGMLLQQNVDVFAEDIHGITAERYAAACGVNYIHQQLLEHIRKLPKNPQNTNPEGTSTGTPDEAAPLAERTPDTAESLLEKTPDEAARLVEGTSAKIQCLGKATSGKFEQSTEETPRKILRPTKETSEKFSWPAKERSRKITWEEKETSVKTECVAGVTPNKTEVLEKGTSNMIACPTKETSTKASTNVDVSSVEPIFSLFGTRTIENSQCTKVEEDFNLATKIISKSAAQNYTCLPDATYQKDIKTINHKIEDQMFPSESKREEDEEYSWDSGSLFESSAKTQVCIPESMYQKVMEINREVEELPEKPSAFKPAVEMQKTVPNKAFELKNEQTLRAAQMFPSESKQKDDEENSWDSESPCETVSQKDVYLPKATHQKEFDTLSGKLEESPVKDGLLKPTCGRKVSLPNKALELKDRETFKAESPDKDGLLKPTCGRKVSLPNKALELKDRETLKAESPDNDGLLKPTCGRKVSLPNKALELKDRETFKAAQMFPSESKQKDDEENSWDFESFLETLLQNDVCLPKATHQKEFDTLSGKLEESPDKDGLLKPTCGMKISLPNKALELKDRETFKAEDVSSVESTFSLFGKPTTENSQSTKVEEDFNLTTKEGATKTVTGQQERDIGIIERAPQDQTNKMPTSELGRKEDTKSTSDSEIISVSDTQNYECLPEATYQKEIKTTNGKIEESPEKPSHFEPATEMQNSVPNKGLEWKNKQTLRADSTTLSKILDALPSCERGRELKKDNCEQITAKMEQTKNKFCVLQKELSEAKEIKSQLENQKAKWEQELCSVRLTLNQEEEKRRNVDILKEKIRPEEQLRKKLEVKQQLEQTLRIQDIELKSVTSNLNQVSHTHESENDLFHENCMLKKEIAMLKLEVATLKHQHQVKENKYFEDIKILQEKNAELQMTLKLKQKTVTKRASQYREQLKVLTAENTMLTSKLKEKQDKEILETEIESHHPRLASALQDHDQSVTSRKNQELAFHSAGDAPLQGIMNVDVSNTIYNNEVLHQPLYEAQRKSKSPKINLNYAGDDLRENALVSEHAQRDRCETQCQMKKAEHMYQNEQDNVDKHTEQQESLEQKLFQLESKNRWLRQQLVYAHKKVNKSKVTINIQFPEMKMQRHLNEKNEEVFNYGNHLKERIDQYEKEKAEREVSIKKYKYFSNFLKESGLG

[2] = target: T1, NY-BR-1 expressed from a transfected …; test: cell-based or functional assay

IFN-γ secretion (pg/ml) upon co-culture with Cos7 cell line transfected with plasmid NYBR 1.1; Patient 5 [1] [pg/mL]	IFN-γ secretion (pg/ml) upon co-culture with Cos7 cell line transfected with plasmid NYBR 1.1; Patient 6 [1] [pg/mL]	IFN-γ secretion (pg/ml) upon co-culture with Cos7 cell line transfected with plasmid NYBR 1.1; Patient 7 [1] [pg/mL]	IFN-γ secretion (pg/ml) upon co-culture with Cos7 cell line transfected with plasmid NYBR1; Patient 5 [2] [pg/mL]	IFN-γ secretion (pg/ml) upon co-culture with Cos7 cell line transfected with plasmid NYBR1; Patient 6 [2] [pg/mL]	IFN-γ secretion (pg/ml) upon co-culture with Cos7 cell line transfected with plasmid NYBR1; Patient 7 [2] [pg/mL]	Binder
153	51	518	1110	555	3590	second generation anti-NY-BR-1 CAR (NYBR1-28Z) (other) VQLQESGPDLVKPSQSLSLTCTVTGYSITSGYSWHWIRQFPGNKLEWMGYIHYSGDTDYNPSLKSRFSITRDTSKNQFFLQLNSVTTEDTATYYCATPGGFVYWGQGTLVTVSAGGGGSGGGGSGGGGSDVVMTQTPLTLSVTIGQPASISCKSSQSLLDSDGKTYLHWLLQRPGQSPKRLIFLVSKLDSGVPDRFTGSGSGTDFTLKISRVEAEDLGVYYCWQGTHFPQTFGGGTKLEIKAAAIEVMYPPPYLDNEKSNGTIIHVKGKHLCPSPLFPGPSKPFWVLVVVGGVLACYSLLVTVAFIIFWVRSKRSRLLHSDYMNMTPRRPGPTRKHYQPYAPPRDFAAYRSRVKFSRSADAPAYQQGQNQLYNELNLGRREEYDVLDKRRGRDPEMGGKPRRKNPQEGLYNELQKDKMAEAYSEIGMKGERRRGKGHDGLYQGLSTATKDTYDALHMQALPPR
527	411	1260	1620	929	3290	fourth generation anti-NY-BR-1 CAR (NYBR1 ScFv BBZ) (other) VQLQESGPDLVKPSQSLSLTCTVTGYSITSGYSWHWIRQFPGNKLEWMGYIHYSGDTDYNPSLKSRFSITRDTSKNQFFLQLNSVTTEDTATYYCATPGGFVYWGQGTLVTVSAGGGGSGGGGSGGGGSDVVMTQTPLTLSVTIGQPASISCKSSQSLLDSDGKTYLHWLLQRPGQSPKRLIFLVSKLDSGVPDRFTGSGSGTDFTLKISRVEAEDLGVYYCWQGTHFPQTFGGGTKLEIKAAAFVPVFLPAKPTTTPAPRPPTPAPTIASQPLSLRPEACRPAAGGAVHTRGLDFACDIYIWAPLAGTCGVLLLSLVITLYCNHRNRFSVVKRGRKKLLYIFKQPFMRPVQTTQEEDGCSCRFPEEEEGGCELRVKFSRSADAPAYQQGQNQLYNELNLGRREEYDVLDKRRGRDPEMGGKPRRKNPQEGLYNELQKDKMAEAYSEIGMKGERRRGKGHDGLYQGLSTATKDTYDALHMQALPPR
0	14	26	51	48	71	third generation anti-NY-BR-1 CAR (NYBR1-28BBZ) (other) VQLQESGPDLVKPSQSLSLTCTVTGYSITSGYSWHWIRQFPGNKLEWMGYIHYSGDTDYNPSLKSRFSITRDTSKNQFFLQLNSVTTEDTATYYCATPGGFVYWGQGTLVTVSAGGGGSGGGGSGGGGSDVVMTQTPLTLSVTIGQPASISCKSSQSLLDSDGKTYLHWLLQRPGQSPKRLIFLVSKLDSGVPDRFTGSGSGTDFTLKISRVEAEDLGVYYCWQGTHFPQTFGGGTKLEIKAAAFVPVFLPAKPTTTPAPRPPTPAPTIASQPLSLRPEACRPAAGGAVHTRGLDFACDIYIWAPLAGTCGVLLLSLVITLYCNHRNRSKRSRLLHSDYMNMTPRRPGPTRKHYQPYAPPRDFAAYRSRFSVVKRGRKKLLYIFKQPFMRPVQTTQEEDGCSCRFPEEEEGGCELRVKFSRSADAPAYQQGQNQLYNELNLGRREEYDVLDKRRGRDPEMGGKPRRKNPQEGLYNELQKDKMAEAYSEIGMKGERRRGKGHDGLYQGLSTATKDTYDALHMQALPPR
